Results reported in paper PMC10883919.

Molecular target: T1, TcrX D54A D54A (Mycobacterium tuberculosis H37Rv) (UniProt O69730)
T1 sequence: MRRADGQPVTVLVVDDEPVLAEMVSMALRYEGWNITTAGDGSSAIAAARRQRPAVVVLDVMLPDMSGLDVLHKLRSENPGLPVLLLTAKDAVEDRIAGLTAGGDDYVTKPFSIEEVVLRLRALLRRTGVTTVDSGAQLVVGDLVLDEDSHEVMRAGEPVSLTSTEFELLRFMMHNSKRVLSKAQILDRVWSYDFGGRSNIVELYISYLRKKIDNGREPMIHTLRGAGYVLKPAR
Assay: EMSA

## TACGACACGCTCAACCGAGATGCGGTGCTGCGTCACAGCGTCAAGTATCCGCACACGGCTGAGCAGACGCCATGCGGATCCTATGTGCGCGCTATGAAACCCGATTTG (double strand) [PtcrXY]
  binding: binds
